B1: Speckle-type POZ protein (Homo sapiens), O43791 (parent)
chain: MSRVPSPPPPAEMSSGPVAESWCYTQIKVVKFSYMWTINNFSFCREEMGEVIKSSTFSSGANDKLKWCLRVNPKGLDEESKDYLSLYLLLVSCPKSEVRAKFKFSILNAKGEETKAMESQRAYRFVQGKDWGFKKFIRRDFLLDEANGLLPDDKLTLFCEVSVVQDSVNISGQNTMNMVKVPECRLADELGGLWENSRFTDCCLCVAGQEFQAHKAILAARSPVFSAMFEHEMEESKKNRVEINDVEPEVFKEMMCFIYTGKAPNLDKMADDLLAAADKYALERLKVMCEDALCSNLSVENAAEILILADLHSADQLKTQAVDFINYHASDVLETSGWKSMVVSHPHLVAEAYRSLASAQCPFLGPPRKRLKQS

Variants of: B1
Details: with dll3_human DLL3, Q9NYJ7

effect of a mutation on the interaction | Variant
with no effect | F102C

Variants of: B1
Details: with duox2_human DUOX2, Q9NRD8

effect of a mutation on the interaction | Variant
with no effect | F102C

Variants of: B1
Details: with e2f2_human E2F2, Q14209

effect of a mutation on the interaction | Variant
with no effect | F102C

Variants of: B1
Details: with e2f3_human E2F3, O00716

effect of a mutation on the interaction | Variant
with no effect | F102C

Variants of: B1
Details: with e2f5_human E2F5, Q15329

effect of a mutation on the interaction | Variant
with no effect | F102C

Variants of: B1
Details: with e2f6_human E2F6, O75461
e2f6_human E2F6, O75461, sequence (O75461 whole entry): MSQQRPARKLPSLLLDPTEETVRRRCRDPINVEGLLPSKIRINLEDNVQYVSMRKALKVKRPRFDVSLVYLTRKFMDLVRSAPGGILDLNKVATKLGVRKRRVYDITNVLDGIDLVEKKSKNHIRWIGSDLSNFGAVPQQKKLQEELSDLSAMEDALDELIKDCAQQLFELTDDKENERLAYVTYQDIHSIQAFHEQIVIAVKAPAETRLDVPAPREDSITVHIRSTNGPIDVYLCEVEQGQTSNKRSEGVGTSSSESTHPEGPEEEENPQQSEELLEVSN

effect of a mutation on the interaction | Variant
with no effect | F102C

Variants of: B1
Details: with e2f8_human E2F8, A0AVK6

effect of a mutation on the interaction | Variant
with no effect | F102C

Variants of: B1
Details: with if4e_human EIF4E

effect of a mutation on the interaction | Variant
with no effect | F102C

Variants of: B1
Details: with epha7_human EPHA7, Q15375
epha7_human EPHA7, Q15375, sequence (Q15375 whole entry, looked up): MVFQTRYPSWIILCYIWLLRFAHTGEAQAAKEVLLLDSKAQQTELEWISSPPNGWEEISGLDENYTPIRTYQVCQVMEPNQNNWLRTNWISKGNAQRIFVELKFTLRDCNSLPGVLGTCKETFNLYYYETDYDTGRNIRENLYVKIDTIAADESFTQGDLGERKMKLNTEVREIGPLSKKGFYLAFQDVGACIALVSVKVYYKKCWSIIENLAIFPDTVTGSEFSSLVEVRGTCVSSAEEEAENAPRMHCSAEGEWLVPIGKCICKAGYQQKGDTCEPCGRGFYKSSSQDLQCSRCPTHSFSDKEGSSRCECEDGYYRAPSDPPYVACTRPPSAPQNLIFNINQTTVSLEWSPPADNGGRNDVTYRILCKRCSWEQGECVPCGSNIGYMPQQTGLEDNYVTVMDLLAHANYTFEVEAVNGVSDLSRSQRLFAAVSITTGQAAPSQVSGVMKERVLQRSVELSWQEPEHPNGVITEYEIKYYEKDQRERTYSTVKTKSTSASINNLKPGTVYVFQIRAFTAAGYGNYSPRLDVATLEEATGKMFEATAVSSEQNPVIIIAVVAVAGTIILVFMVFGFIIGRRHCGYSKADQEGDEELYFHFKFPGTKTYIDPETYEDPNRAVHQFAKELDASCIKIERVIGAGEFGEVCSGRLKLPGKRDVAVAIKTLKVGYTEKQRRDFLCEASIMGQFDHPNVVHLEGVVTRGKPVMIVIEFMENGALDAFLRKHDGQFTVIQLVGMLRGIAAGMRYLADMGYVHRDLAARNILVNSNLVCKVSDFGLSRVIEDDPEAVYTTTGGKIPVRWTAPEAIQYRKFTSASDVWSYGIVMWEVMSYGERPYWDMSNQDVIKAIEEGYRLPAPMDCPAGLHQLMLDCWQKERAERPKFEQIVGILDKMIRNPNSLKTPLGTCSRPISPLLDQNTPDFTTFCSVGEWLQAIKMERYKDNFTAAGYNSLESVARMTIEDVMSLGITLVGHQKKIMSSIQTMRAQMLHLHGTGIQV

effect of a mutation on the interaction | Variant
with no effect | F102C

Variants of: B1
Details: with ephb1_human EPHB1, P54762

effect of a mutation on the interaction | Variant
with no effect | F102C

Variants of: B1
Details: with erbb3_human ERBB3, P21860

effect of a mutation on the interaction | Variant
with no effect | F102C

Variants of: B1
Details: with erbb4_human ERBB4, Q15303

effect of a mutation on the interaction | Variant
with no effect | F102C

Variants of: B1
Details: with esr1_human ESR1, P03372

effect of a mutation on the interaction | Variant
with no effect | F102C

Variants of: B1
Details: with etv1_human ETV1, P50549
etv1_human ETV1, P50549, sequence (P50549 whole entry): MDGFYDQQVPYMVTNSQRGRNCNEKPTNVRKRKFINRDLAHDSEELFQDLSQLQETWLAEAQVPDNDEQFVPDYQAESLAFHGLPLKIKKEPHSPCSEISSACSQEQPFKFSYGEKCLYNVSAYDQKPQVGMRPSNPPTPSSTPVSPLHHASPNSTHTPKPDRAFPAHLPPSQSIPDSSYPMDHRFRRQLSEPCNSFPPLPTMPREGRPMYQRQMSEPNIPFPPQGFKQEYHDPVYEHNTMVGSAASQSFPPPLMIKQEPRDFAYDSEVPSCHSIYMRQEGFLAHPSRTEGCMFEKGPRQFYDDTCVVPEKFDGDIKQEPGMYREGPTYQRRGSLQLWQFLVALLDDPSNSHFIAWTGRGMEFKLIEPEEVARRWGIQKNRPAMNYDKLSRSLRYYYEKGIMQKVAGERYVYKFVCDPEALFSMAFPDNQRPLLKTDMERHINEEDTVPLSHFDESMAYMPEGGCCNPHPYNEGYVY

effect of a mutation on the interaction | Variant
with no effect | F102C

Variants of: B1
Details: with ezh1_human EZH1, Q92800

effect of a mutation on the interaction | Variant
with no effect | F102C

Variants of: B1
Details: with ezh2_human EZH2, Q15910

effect of a mutation on the interaction | Variant
with no effect | F102C

Variants of: B1
Details: with facd2_human FANCD2, Q9BXW9
facd2_human FANCD2, Q9BXW9, sequence (Q9BXW9 whole entry): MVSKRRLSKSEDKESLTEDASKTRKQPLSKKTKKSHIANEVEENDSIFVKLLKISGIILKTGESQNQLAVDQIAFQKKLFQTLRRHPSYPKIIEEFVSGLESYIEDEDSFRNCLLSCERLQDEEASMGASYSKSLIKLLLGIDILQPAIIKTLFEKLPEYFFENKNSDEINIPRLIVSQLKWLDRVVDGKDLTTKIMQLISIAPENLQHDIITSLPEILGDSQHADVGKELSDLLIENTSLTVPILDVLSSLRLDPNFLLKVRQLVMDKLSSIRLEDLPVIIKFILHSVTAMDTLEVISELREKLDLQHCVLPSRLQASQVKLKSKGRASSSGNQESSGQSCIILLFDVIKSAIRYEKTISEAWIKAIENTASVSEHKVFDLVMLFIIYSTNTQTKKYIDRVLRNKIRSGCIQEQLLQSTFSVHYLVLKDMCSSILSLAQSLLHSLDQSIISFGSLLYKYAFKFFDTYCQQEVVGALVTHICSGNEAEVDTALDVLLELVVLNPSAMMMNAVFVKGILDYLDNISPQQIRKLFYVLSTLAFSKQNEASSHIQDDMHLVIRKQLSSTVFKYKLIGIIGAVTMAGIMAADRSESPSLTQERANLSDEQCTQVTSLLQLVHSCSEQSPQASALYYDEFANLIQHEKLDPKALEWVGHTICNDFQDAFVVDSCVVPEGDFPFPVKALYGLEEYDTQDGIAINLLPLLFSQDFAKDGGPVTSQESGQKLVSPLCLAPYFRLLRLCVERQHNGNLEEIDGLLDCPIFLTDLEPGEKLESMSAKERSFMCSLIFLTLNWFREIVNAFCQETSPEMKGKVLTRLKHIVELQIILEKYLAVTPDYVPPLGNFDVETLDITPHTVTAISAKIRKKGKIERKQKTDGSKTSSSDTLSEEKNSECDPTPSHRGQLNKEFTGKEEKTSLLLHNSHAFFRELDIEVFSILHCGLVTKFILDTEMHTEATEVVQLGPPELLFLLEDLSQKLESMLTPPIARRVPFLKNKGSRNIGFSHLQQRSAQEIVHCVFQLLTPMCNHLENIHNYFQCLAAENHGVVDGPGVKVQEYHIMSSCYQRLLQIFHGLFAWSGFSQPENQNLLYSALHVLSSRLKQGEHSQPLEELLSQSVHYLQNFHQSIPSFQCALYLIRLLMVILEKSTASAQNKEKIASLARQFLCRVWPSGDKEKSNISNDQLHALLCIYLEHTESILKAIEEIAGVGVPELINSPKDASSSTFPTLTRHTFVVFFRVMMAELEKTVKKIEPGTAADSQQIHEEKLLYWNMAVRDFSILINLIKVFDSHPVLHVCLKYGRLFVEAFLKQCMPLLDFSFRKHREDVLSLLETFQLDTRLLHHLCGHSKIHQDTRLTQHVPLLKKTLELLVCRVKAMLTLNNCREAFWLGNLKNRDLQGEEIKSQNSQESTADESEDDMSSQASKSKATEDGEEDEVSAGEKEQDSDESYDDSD

effect of a mutation on the interaction | Variant
with no effect | F102C

Variants of: B1
Details: with fgf19_human FGF19, O95750
fgf19_human FGF19, O95750, sequence (O95750 whole entry): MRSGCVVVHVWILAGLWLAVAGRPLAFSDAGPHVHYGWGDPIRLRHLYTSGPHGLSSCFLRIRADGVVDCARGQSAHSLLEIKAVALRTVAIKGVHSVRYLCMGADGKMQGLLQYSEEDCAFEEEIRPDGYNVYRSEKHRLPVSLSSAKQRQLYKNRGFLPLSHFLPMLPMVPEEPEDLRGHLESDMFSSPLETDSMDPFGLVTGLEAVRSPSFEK

effect of a mutation on the interaction | Variant
with no effect | F102C

Variants of: B1
Details: with fgfp1_human FGFBP1, Q14512

effect of a mutation on the interaction | Variant
with no effect | F102C

Variants of: B1
Details: with fgfr4_human FGFR4, P22455

effect of a mutation on the interaction | Variant
with no effect | F102C

Variants of: B1
Details: with fumh_human FH

effect of a mutation on the interaction | Variant
with no effect | F102C

Variants of: B1
Details: with fzr1_human FZR1, Q9UM11

effect of a mutation on the interaction | Variant
with no effect | F102C

Variants of: B1
Details: with gbra6_human GABRA6, Q16445

effect of a mutation on the interaction | Variant
with no effect | F102C

Variants of: B1
Details: with gata1_human GATA1, P15976

effect of a mutation on the interaction | Variant
with no effect | F102C

Variants of: B1
Details: with p66b_human GATAD2B

effect of a mutation on the interaction | Variant
with no effect | F102C

Variants of: B1
Details: with gna11_human GNA11, P29992

effect of a mutation on the interaction | Variant
with no effect | F102C

Variants of: B1
Details: with gna13_human GNA13, Q14344

effect of a mutation on the interaction | Variant
with no effect | F102C

Variants of: B1
Details: with gnaq_human GNAQ

effect of a mutation on the interaction | Variant
with no effect | F102C

Variants of: B1
Details: with grm1_human GRM1, Q13255

effect of a mutation on the interaction | Variant
with no effect | F102C

Variants of: B1
Details: with grm3_human GRM3, Q14832

effect of a mutation on the interaction | Variant
with no effect | F102C

Variants of: B1
Details: with gtpb4_human GTPBP4, Q9BZE4

effect of a mutation on the interaction | Variant
with no effect | F102C

Variants of: B1
Details: with h33_human H3-3A

effect of a mutation on the interaction | Variant
with no effect | F102C

Variants of: B1
Details: with hdac1_human HDAC1, Q13547

effect of a mutation on the interaction | Variant
with no effect | F102C

Variants of: B1
Details: with hdac3_human HDAC3, O15379
hdac3_human HDAC3, O15379, sequence (O15379 whole entry): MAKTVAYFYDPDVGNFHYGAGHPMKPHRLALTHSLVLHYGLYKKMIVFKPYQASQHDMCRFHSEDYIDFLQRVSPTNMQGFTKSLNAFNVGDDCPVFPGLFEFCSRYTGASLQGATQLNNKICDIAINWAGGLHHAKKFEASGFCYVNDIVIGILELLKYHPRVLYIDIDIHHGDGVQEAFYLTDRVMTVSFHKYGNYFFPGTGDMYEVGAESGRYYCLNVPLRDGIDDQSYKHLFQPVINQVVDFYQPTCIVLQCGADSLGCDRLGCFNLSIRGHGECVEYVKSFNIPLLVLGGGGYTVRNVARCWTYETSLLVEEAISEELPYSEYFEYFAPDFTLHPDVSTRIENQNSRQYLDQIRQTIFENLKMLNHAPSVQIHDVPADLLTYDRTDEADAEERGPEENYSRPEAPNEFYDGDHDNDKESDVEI

effect of a mutation on the interaction | Variant
with no effect | F102C

Variants of: B1
Details: with hgf_human HGF

effect of a mutation on the interaction | Variant
with no effect | F102C

Variants of: B1
Details: with h31_human H3C1, P68431

effect of a mutation on the interaction | Variant
with no effect | F102C

Variants of: B1
Details: with hlab_human HLA-B

effect of a mutation on the interaction | Variant
with no effect | F102C

Variants of: B1
Details: with il7ra_human IL7R

effect of a mutation on the interaction | Variant
with no effect | F102C

Variants of: B1
Details: with int12_human INTS12, Q96CB8

effect of a mutation on the interaction | Variant
with no effect | F102C

Variants of: B1
Details: with jak1_human JAK1, P23458
jak1_human JAK1, P23458, sequence (P23458 whole entry): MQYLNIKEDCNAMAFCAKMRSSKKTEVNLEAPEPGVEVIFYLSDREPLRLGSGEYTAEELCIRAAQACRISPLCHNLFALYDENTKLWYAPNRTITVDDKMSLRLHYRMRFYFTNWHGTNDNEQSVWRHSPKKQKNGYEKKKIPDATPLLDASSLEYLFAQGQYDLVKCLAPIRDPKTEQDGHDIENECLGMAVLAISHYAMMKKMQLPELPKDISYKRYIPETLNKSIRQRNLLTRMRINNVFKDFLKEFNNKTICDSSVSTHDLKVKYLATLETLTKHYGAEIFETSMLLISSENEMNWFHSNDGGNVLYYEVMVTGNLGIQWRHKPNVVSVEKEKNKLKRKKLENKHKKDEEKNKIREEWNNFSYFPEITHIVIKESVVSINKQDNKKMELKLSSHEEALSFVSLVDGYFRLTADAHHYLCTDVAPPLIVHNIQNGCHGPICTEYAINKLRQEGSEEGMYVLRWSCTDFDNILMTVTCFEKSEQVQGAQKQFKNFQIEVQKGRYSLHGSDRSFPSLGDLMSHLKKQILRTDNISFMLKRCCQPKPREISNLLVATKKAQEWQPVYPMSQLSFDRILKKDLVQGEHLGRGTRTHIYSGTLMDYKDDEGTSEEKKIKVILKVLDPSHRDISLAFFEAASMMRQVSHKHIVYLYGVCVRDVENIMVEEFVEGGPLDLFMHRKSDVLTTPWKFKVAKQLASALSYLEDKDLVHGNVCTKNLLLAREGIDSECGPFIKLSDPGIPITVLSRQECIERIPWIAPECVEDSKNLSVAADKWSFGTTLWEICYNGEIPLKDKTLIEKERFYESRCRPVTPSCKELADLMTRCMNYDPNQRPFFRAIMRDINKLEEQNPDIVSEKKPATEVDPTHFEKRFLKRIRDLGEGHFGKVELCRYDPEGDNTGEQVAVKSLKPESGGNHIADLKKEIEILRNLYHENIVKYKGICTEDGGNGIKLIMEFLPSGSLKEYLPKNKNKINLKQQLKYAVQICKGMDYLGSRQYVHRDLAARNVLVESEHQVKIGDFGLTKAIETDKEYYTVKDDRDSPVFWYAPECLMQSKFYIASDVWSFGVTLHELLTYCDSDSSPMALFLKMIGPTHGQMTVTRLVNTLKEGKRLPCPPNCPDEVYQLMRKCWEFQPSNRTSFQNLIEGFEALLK

effect of a mutation on the interaction | Variant
with no effect | F102C

Variants of: B1
Details: with jak3_human JAK3, P52333

effect of a mutation on the interaction | Variant
with no effect | F102C

Variants of: B1
Details: with kat2a_human KAT2A

effect of a mutation on the interaction | Variant
with no effect | F102C

Source: IntAct's records for PubMed 35512704
